The data set in a line: soluble on expression in E. coli; label from the status in PepcDB or PDB records.
On to “MAHHHHHHMNNSSAVATGDNPQLQKPMIYKNRARSIVHRSVRNGSENQLTEQANGTSIRDKIRRLFSSKHDQTIRDMQKTKLTKNKSIQEQEPSERNVDGFLSTDHQSVEWQPVYRETCKIKLPVEEGATKIAMPEEVLDDWVHSQHKISQQLGRRKGGEFVQDNQSLGDHDQGDDLLELGGDCLLGKNASRKSCNLKSTEDQYSKFKYYYNYYLVDEYLESLAASPNKELDATGLDEHGQLYDNVSLNARPIIVSKQRLESGVPYDPSKLLQ”, for which the “soluble on expression in E. coli” value is “not soluble”.

For “QFLFSMSTGPFICTVKDNQVFVANLPWTMLEGDDIQVGKEFAARVEDCTNVKHDMAPTCTKPPPFCGPQDMKMFNFVGCSVLGNKLFIDQKYVRDLTAKDHAEVQTFREKIAAFEEQQENQPPSSGMPHGAVPAGGLSPPPPPSFCTVQ”, the “soluble on expression in E. coli” value is reported as “soluble”.

On to “MNMSRHDEFGGSTNKGPVQEHDVIMRGRRLLDITGVKQVESFDNEEFLLETVMGFLAIRGQNLQMKNLDVDKGVVSIKGRIFDLVYLDDHQEKAKGFFSKLFK”, for which the “soluble on expression in E. coli” value is “not soluble”.

Take “MGSDKIHHHHHHKIKQTAGRDQLGTFAPKFAELNDDILFGEVWSRTEQLGLRDRSLVTITSLISQGITDSSLTFHLQSAKNNGITRTEIAEIITHIGFYAGWPKAWAAFRLAKEVWNEDISCKDKDEKTTFQREMIFPIGEPNTAYAQYFTGNSYLAPISREQASISNVTFEPRCRNNWHIHHATQGGGQMLIGIAGRGWYQEEGKAAVEILPGTVIHIPANVKHWHGAAANSWFAHLAFELSGENTSNEWLEPVTDEEYDKIQMLP”: the “soluble on expression in E. coli” value is “not soluble”.

Consider “MPPPLPYDAMRSVWTDTAAPAMATVPLAGHADCDVAIVGAGITGLSAALHLAERGLRACVLEARDPGWGASGRNGGQVIPGIKHDPDEILARHGRERGEPLLHMVGTAADTVFDLIDRYGLDCHPVRRGWIQPAHSRQALDAVLARARQWRARGADVAELDAGDVARRLGTGRFLGGWIDRRAGSIQPLRYTRGLLRAALSLGAAVHGQSPVVALQREGSRWLVRCAQGASVRAEHVLIATNAYTDDLWPGLRRTVIAANSFIVATGPLDPALAPAILPGGEVASDSRRLLLYFRRDADRRFILGGRGRFADPVSDADWNHLVRGARLLYPQLADTPFVHRWSGRVALTRDFVPHVHQPSPNLRIVLGYNGRGVALATQMGNYLAREISGGEPLPYPVTPIAPIPLHGLKRLYIGLAVAYYGLCDRISLEHHHHHH”, for which the “soluble on expression in E. coli” value is “not soluble”.

For “MAEPLQPDPGAAEDAAAQAVETPGWKAPEDAGPQPGSYEIRHYGPAKWVSTSVESMDWDSAIQTGFTKLNSYIQGKNEKEMKIKMTAPVTSYVEPGSGPFSESTITISLYIPSEQQFDPPRPLESDVFIEDRAEMTVFVRSFDGFSSAQKNQEQLLTLASILREDGKVFDEKVYYTAGYNSPVKLLNRNNEVWLIQKNEPTKENE”, the “soluble on expression in E. coli” value is “soluble”.

Take “LTVSARDAPTKISTLAVKVHGGSRYATKDGVAHLLNRFNFQNTNTRSALKLVRESELLGGTFKSTLDREYITLKATFLKDDLPYYVNALADVLYKTAFKPHELTESVLPAARYDYAVAEQCPVKSAEDQLYAITFRKGLGNPLLYDGVERVSLQDIKDFADKVYTKENLEVSGENVVEADLKRFVDESLLSTLPAGKSLVSKSEPKFFLGEENRVRFIGDSVAAIGIPVNKASLAQYEVLANYLTSALSELSGLISSAKLDKFTDGGLFTLFVRDQDSAVVSSNIKKIVADLKKGKDLSPAINYTKLKNAVQNESVSSPIELNFDAVKDFKLGKFNYVAVGDVSNLPYLDEL”: the “soluble on expression in E. coli” value is reported as “soluble”.

Turning to “MKGLYPESVISRFDFAVTEDNKIKMLEFNSDTPTFIVECFQMNGKVCGNLGYDDPNSDQERLLSSGVTKAVMEATKGLDNPNVVFTAHHEHIEDWNTTMYLSQLCHVENKVVPMSELRITKDALVDKDGAKIDVLYRQTYPIEDLIEDQDPETGDLVGVELLQLVKAGKLFIINPLSAFLLQPKSIQCLIWGLAEEEAFYTNEEQQWIKEYMLPTYLEPDLFLGKGSFVQKPSFGREGDTITIRDKDENIMLQNAHQTYKASLPIFQKYIELPVVSLETEKGIEKLSYVFGSFLIAGKASSIGIRAGEKITGNESYYLPVGIKRRGKND”, the “soluble on expression in E. coli” value is reported as “not soluble”.

As for “SLKSFPHGEKAPFPLTLIHINDLHARFDETNQKSSTCTNSKECIAGIARVYHTIKQLKSEYKTKNPLYLNAGDNFQGTLWYNLLRWNVTAYFIKELPPDAMTLGNHEFDHSPKGLAPYLAELEKMKIPTVVANLEKNGEPALKDSKIAPQIVLKVGNRKVGVIGALYDKTHLVAQTGMVTLTNSIEAVRKEAQELKKKNVNIIVVLSHCGLDGDKQLAEEAGDLIDVIVGAHSHSLLLNKDAKVPYDTKYDTIEGDYPLVVKKSNNHTVLITQARSFGKYVGRLTVNFDCEGEVQSWEGYPIYMNNSVKQDEEVLRELEPWRAEVKRLGTQVIGTTEVFLDRESCRWCECTLGDLIADAYADQYTNSTVQPVAFVQAGNFRNPIEKGDITNGLAIEAAPYGSSVDMIKLSGADLWSAIDHSFTLDDEFRYNTAQVSGMTVVADLSKKPYERVQSIDIVGANGAKTALKKDQIYYVAVPSYLADGKDGFAMLKKGTNRVTGPLDSDVLIEYVRKRQTIAKTMFQEKRVVIENHTNGTCSWDLDSQRYKPK”, the “soluble on expression in E. coli” value is listed as “not soluble”.

For the sequence “AHHHHHHGSAGVRLVDVWKVFGEVTAVRELSLEVKDGEFMILLGPSGCGKTTTLRMIAGLEEPSRGQIYIGDRLVADPEKGIFVPPKDRDIAMVFQSYALYPHMTVYDNIAFPLKLRKVPRQEIDQRVREVAELLGLTELLNRKPRELSGGQRQRVALGRAIVRKPQVFLMDEPLSNLDAKLRVRMRAELKKLQRQLGVTTIYVTHDQVEAMTMGDRIAVMNGGVLQQVGSPDEVYDKPANTFVAGFIGSPPMNFLDAIVTEDGFVDFGEFRLKLLPDQFEVLGELGYVGREVIFGIRPEDLYDAMFARVRVPGENLVRAVVEIVENLGSERIVHLRVGGVTFVGAFRSESRVREGVEVDVVFDMKKIHIFDKTTGKAIF”, the “soluble on expression in E. coli” value is “soluble”.

As to “MITMNMNDYKNKRVPPDWCPGCGNFAQLSAITMALAELKIDPKDVVVASGIGCSSNMPEFLNTYGFHGLHGRLVPFAAGVKWANSKLTVIAYGGDGDGFFEGTQHFYHTAKRNVDITYMVSDNQVFGLTTGQASPTAPIGLKTKTTPDGNIETPFNPIAFALNAGATFVARAFSGDIKHLKDITVRAIKHKGFSFIDVISPCVTWNKENSYEYFRPRVYHLENNDVTNFDQAYKLAFEWGDHIPIGVFYEVERPTYEDLDEVLKEGPLVEQGIHKLTEDDLEEFA”, the “soluble on expression in E. coli” value is “not soluble”.

As for “MAHHHHHHMYSQRLSRVSPYLSNGSLSPRRFYEMLRRYATENLRDNFVQMQYREALLRLSRRDYWHWMGLRYGTLLFFPYGPRPEQTDNIPDWRHDEKIVQKWCAGLTGVPFADAAMRELLTTGFVAHEGRQALAWLLTRGYGQDWRLGAEWLERCSLDYDPFLCYGNFAYFSELILDDFGEPVRSVHWLAHHHDQTGIYVKKWLPLLSKIPPVYIHRPHVLTPRMQAMHGVRLGKTYPYPLKLWDGAQYMLGSDELTTYFDDSSAWHRKTKSGAGGPGHAEALRHGKAIMKVREWNAAILPEEVAQRPWAHHLPASAFESSEDEVETLQMRQRNQNQPTRHGQLSL”, the “soluble on expression in E. coli” value is reported as “not soluble”.

For the sequence “TTFFGRETAFFNGTEKLGRKFSLPVVYMDVEKTGHDVFTGTIKLLHHPQDDSPEGSITEEYVRLMETTIRRDPSQWLWSHRRWKRPRLHNTRQL”, the “soluble on expression in E. coli” value was “not soluble”.

In the case of “MIGVTSCISGDGKSFCSHNLARIYAISGKKTLLIRGDMRKAFNAPANLIPQGSMGLSQHLIGMATIDQIIHKGEIENLYQIIPGPVPPNASELVASQKMEEFIRIMKDKFEVVIMDSPPVGLVSDYMSVIKHIDANLYIVRYDYTPKETLEAIKDLKNKYPAQSHSIIFN”, the “soluble on expression in E. coli” value is “not soluble”.

Take “MRPTVVSMGKHFGNLGKMYGEHRFALAPNEQKAYKGFFDQAFVKTFKTYVWDQWYYYIPQTIGAYLLYDWAKKTNVAANRKNPADFANDQ”: the “soluble on expression in E. coli” value was “not soluble”.

Regarding “MAPKFTLNQERDNDRERTRASYNNDRRRNDYDPRACYKCGKLGHFARSCHVVTQPTTAYITCYFCSEEGHRSNGCPNKRTDQVNPKGHCYWCGNQDHRFNLIIWRSRCLFRLMKPKYAF”, the “soluble on expression in E. coli” value was “soluble”.

In the case of “MNARSTGQHPARYPGAAAGEPTLDSWQEPPHNRWAFAHLGEMVPSAAVSRRPVNAPGHALVRLGAIAAQLPDLEQRLEQTYTDAFLVLRGTEVVAEYYRAGFAPDDRHLLMSVSKSLCGTVVGVLVDEGRIDPAQPVTEYVPELAGSVYDGPSVLQVLDMQISIDYNEDYVDPASEVQTHGRSAGWSTRRHGDPADTYEFLTTLRGDGSTGEFQYCSANTDVLAWIVERVTGLRYVEALSTYLWAKLDADRDATITVDTTGFGCAHGGVSCTARDLARVGRMMLDGGVAPRGRVVSEDWVRRVLAGGSHEAMTDKGFTNTFPDGSYTRQWWCTGNERANVSGIGIHGQNLWLDPLTDSVIVKLSSWPDPYTEHWHRLQNGILLDVSRALDAV”, the “soluble on expression in E. coli” value is recorded as “soluble”.

With “MAFFRLAALLWLGMLMSPVQAQSLSLQVLDAVVKDAVLADAEVQLGQASGRTDAQGRVTLEAADSPGSELLIRKLGYADLRAKCPCQGLSYAMSPVLKDPQSLRVVLSWSAPGEDLDAHLSYPHRLLYYATGTGPGARMNVDSTDSRGPETLTIEQPVPGDAYVYAVHDFTNGNNPESLRLGRSQAQVFVYKGPTLMRSYRVPQNRQGNLWVVFRLTANGQLQDIDRVLQGNEEVESRMSDLDPLLLANGKPIDEVLARDEGPVDAKSLNQKGEASYRKGDVGSAGIYYREAIELDPGFAQAYSNLALSNRKNSRPDEAVAADRQAIALASGPSAPTIRASAYYDMGRIYEDAGQLVTALEHYRKAREQKANPVYDKAIERLQNRLEHHHHHH”, the “soluble on expression in E. coli” value is “not soluble”.

For the sequence “MWYHRLSHLHSRLQDLLKGGVIYPALPQPNFKSLLPLAVHWHHTASKSLTCAWQQHEDHFELKYANTVMRFDYVWLRDHCRSASCYNSKTHQRSLDTASVDLCIKPKTIRLDETTLFFTWPDGHVTKYDLNWLVKNSYEGQKQKVIQPRILWNAEIYQQAQVPSVDCQSFLETNEGLKKFLQNFLLYGIAFVENVPPTQEHTEKLAERISLIRETIYGRMWYFTSDFSRGDTAYTKLALDRHTDTTYFQEPCGIQVFHCLKHEGTGGRTLLVDGFYAAEQVLQKAPEEFELLSKVPLKHEYIEDVGECHNHMIGIGPVLNIYPWNKELYLIRYNNYDRAVINTVPYDVVHRWYTAHRTLTIELRRPENEFWVKLKPGRVLFIDNWRVLHGRECFTGYRQLCGCYLTRDDVLNTARLLGLQA”, the “soluble on expression in E. coli” value is on record as “not soluble”.

For the sequence “MVSRRVQALLDQLRAQGIQDEQVLNALAAVPREKFVDEAFEQKAWDNIALPIGQGQTISQPYMVARMTELLELTPQSRVLEIGTGSGYQTAILAHLVQHVCSVERIKGLQWQARRRLKNLDLHNVSTRHGDGWQGWQARAPFDAIIVTAAPPEIPTALMTQLDEGGILVLPVGEEHQYLKRVRRRGGEFIIDTVEAVRFVPLVKGELA”, the “soluble on expression in E. coli” value was “soluble”.

(Values after the DeepSol protein solubility set.)
